Test results reported in paper PMC6891902, “GLTSCR1 Negatively Regulates BRD4‐Dependent Transcription Elongation and Inhibits CRC Metastasis” (Advanced Science, 2019).

Target: T1, His-tagged BRD4 (1-470, BDs domain) (UniProt O60885 1-470)
T1 construct: BRD4, BDs domain (BD1 + BD2), aa 1-470; also called His-BRD4 (BD1 + BD2); pET-28a-His-BRD4 (1-470)
Experiment: pull-down; GST pull-down; purified GST-GLTSCR1 (1161-1361) incubated with purified His-tagged BRD4 fragment at 4 °C overnight; beads washed three times in lysis buffer (0.5% Triton-X100, 50 mM NaH2PO4, 300 mM NaCl); immunoblot
Details: both partners purified

B1: GST-GLTSCR1 (aa 1161-1361), BRD4 binding domain (BB domain) (domain or fragment, human, UniProt Q9NZM4 1161-1361, looked up)
chain: EESRRVSPSAEMVMIDRMFIQEEKTTLALDKQLAKEKPDEYVSSSRSLGLPIAASSEGHRLPGHGPLSSSAPGASTQPPPHLPTKLVIRHGGAGGSPSVTWARASSSLSSSSSSSSAASSLDADEDGPMPSRNRPPIKTYEARSRIGLKLKIKQEAGLSKVVHNTALDPVHQPPPPPATLKVAEPPPRPPPPPPPTGQMNG
notes: also called GST-tagged GLTSCR1 BB domain; source: E. coli BL21, purified (glutathione agarose beads)
B1: binds.
